Measurements published in paper PMC3737725 (Development (Cambridge, England), 2013).

Biological target: T1, murine MBP::KSR1 (mouse, UniProt Q61097 1-873)
T1 sequence (looked up): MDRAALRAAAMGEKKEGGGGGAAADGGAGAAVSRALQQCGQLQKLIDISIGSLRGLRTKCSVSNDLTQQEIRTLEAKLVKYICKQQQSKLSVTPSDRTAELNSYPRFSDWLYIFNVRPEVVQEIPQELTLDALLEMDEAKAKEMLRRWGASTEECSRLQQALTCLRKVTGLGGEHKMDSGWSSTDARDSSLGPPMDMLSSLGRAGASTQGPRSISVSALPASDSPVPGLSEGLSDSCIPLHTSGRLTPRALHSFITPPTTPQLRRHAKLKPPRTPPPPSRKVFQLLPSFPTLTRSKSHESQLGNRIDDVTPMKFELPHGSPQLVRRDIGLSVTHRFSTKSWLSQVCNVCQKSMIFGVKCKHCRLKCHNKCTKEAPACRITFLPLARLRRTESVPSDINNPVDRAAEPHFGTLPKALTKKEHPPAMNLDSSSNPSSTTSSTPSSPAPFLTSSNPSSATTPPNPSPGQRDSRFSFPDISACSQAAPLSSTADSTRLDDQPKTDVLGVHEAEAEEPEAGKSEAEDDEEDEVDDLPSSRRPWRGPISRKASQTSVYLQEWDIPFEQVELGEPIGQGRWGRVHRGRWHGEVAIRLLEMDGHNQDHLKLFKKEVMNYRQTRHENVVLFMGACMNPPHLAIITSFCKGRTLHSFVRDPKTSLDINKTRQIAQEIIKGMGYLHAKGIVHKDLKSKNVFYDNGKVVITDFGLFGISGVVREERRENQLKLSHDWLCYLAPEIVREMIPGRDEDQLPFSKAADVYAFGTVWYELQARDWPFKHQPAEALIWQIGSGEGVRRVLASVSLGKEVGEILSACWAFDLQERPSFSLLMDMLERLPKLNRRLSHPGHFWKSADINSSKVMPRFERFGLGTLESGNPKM
Experiment: pull-down

- binding result: binds
B1: GST::NDK-1::His6 (natural protein, C. elegans, UniProt Q93576 1-153, looked up)
chain: MSNTERTFIAIKPDGVHRGLVGKIIARFEERGYKLVALKQMTASKAHLEVHYQDLKDKPFFPSLIEYMSSGPVVAMVWQGLDVVKQGRSMLGATNPLASAPGTIRGDFCIQTGRNICHGSDAVDSANREIAHWFKQEEINDYASPFINSWVYE
